± gives the uncertainty stated by the source.
Assay: self-splicing fitness, log relative to wild type (ln ratio); higher = more splicing; Tetrahymena group I intron in knt gene, E. coli kanamycin selection, DiMSum; sequences stand for … in CUCUCU…GGAGGGAAAAGUUAUCAGGCAUGCACCUGGUAGCUAGUCUUUAAACCAAUAGAUUGCAUCGGUUUAAAAGGCAAGACCGUCAAAUUGCGGGAAAGGGGUCAACAGCCGUUCAGUACCAAGUCUCAGGGGAAACUUUGAGAUGGCCUUGCAAAGGGUAUGGUAAUAAGCUGACGGACAUGGUCCUAACCACGCAGCCAAGUCCUAAGUCAACAGAUCUUCUGUUGAUAUGGAUGCAGUUCACAGACUAAAUGUCGGUCGGGGAAGAUGUAUUCUUCUCAUAAGAUAUAGUCGGACCUCUCCUUAAUGGGAGCUAGCGGAUGAAGUGAUGCAACACUGGAGCCGCUGGGAACUAAUUUGUAUGCGAAAGUAUAUUGAUUAGUUUUGGAGUACUCGUGGUCG
Procedure, shortened: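 A randomised library covering all eight P1ex-region intron nucleotides was built with the intron in the knt kanamycin-resistance gene on pET-22b(+) and held in E. coli BL21(DE3). Cells were grown overnight at 37°C or 30°C on LB agar, with or without 25 μg/mL kanamycin, plus 100 μg/mL carbenicillin, 50 μM IPTG and 0.2% rhamnose, and pooled colonies were amplicon-sequenced on an Illumina HiSeq 2500. DiMSum fitness is the error-weighted combination of wild-type-normalised replicate fold changes, kanamycin versus none.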

Sequence | self-splicing fitness (ln) (30 °C) | self-splicing fitness (ln) (37 °C)
CAUAAGCAAUAUUACGCGUG | -3.79 ± 0.26 | -2.88 ± 0.2
CAUAAGCAAUAUUACGCUAA | -2.58 ± 0.3 | -0.864 ± 0.24
CAUAAGCAAUAUUACGCUAC |  | -1.79 ± 0.21
CAUAAGCAAUAUUACGCUUU | -3.86 ± 0.26 | -2.73 ± 0.24
CAUAAGCAAUAUUACGGCCA | -2.38 ± 0.26 | -2.62 ± 0.29
CAUAAGCAAUAUUACGGCGA | -1.96 ± 0.18 | -0.178 ± 0.15
CAUAAGCAAUAUUACGGGAA | -2.98 ± 0.21 | -2.23 ± 0.16
CAUAAGCAAUAUUACGUACU |  | -2 ± 0.32
CAUAAGCAAUAUUACGUAUG | -3.87 ± 0.2 | -2.74 ± 0.23
CAUAAGCAAUAUUACGUCAU | -3.67 ± 0.19 | -2.19 ± 0.19
CAUAAGCAAUAUUACGUGCA | -3.45 ± 0.23 | -2.4 ± 0.18
CAUAAGCAAUAUUACGUGGG | -3.38 ± 0.12 | -3.49 ± 0.18
CAUAAGCAAUAUUACGUUGA | -3.55 ± 0.16 | -2.85 ± 0.16
CAUAAGCAAUAUUACGUUUA | -2.97 ± 0.23 | -2.42 ± 0.28
CAUCAGCAAUAUUACGAAGA | -2.97 ± 0.27 | -0.441 ± 0.15
CAUCAGCAAUAUUACGAAGC | -3.23 ± 0.47 | -2.2 ± 0.41
CAUCAGCAAUAUUACGACGA | -1.38 ± 0.16 | -0.863 ± 0.14
CAUCAGCAAUAUUACGAGAC | -3.95 ± 0.23 | -2.73 ± 0.16
CAUCAGCAAUAUUACGAGCU | -1.92 ± 0.26 | -2.3 ± 0.47
CAUCAGCAAUAUUACGAUUC | -1.62 ± 0.071 | -0.269 ± 0.073
CAUCAGCAAUAUUACGCAAC |  | -1.59 ± 0.28
CAUCAGCAAUAUUACGCCUG | -0.718 ± 0.092 | -0.495 ± 0.098
CAUCAGCAAUAUUACGCCUU | -1.92 ± 0.12 | -0.379 ± 0.12
CAUCAGCAAUAUUACGCUCA | -1.55 ± 0.18 | -0.924 ± 0.16
CAUCAGCAAUAUUACGCUUG | -2.08 ± 0.084 | -1.03 ± 0.098
CAUCAGCAAUAUUACGGACG | -0.594 ± 0.053 | -0.172 ± 0.08
CAUCAGCAAUAUUACGGCGC | -2.95 ± 0.13 | -0.694 ± 0.15

Sequence | self-splicing fitness (ln) (30 °C) | self-splicing fitness (ln) (37 °C)
CAUCAGCAAUAUUACGGGCG | -0.567 ± 0.069 | -0.377 ± 0.074
CAUCAGCAAUAUUACGGGUC | -2.63 ± 0.11 | -0.644 ± 0.1
CAUCAGCAAUAUUACGGGUU | -1.8 ± 0.067 | -0.61 ± 0.08
CAUCAGCAAUAUUACGGUAG | -0.362 ± 0.075 | 0.051 ± 0.085
CAUCAGCAAUAUUACGUAUC | -1.9 ± 0.092 | -1.05 ± 0.098
CAUCAGCAAUAUUACGUGCU | -3.71 ± 0.28 | -2.46 ± 0.21
CAUCAGCAAUAUUACGUUGU | -3.52 ± 0.14 | -2.92 ± 0.16
CAUGAGCAAUAUUACGAAGG | -3.17 ± 0.19 | -2.05 ± 0.21
CAUGAGCAAUAUUACGACAG | -1.89 ± 0.13 | -1.02 ± 0.15
CAUGAGCAAUAUUACGACCU | -2.47 ± 0.29 | -0.931 ± 0.26
CAUGAGCAAUAUUACGACUG | -1.78 ± 0.13 | -0.743 ± 0.18
CAUGAGCAAUAUUACGAGGU | -3.26 ± 0.33 | -3.11 ± 0.4
CAUGAGCAAUAUUACGAUCG | -0.0708 ± 0.12 | -0.399 ± 0.14
CAUGAGCAAUAUUACGCACG | -0.622 ± 0.097 | -0.67 ± 0.11
CAUGAGCAAUAUUACGCCUC |  | -1.75 ± 0.42
CAUGAGCAAUAUUACGCCUG | -2.93 ± 0.21 | -2.02 ± 0.35
CAUGAGCAAUAUUACGCGAC |  | -2.84 ± 0.44
CAUGAGCAAUAUUACGCGUG | -4.92 ± 0.36 | -2.71 ± 0.26
CAUGAGCAAUAUUACGCUAA |  | -2.94 ± 0.43
CAUGAGCAAUAUUACGGCAU | -3.35 ± 0.34 | -2.9 ± 0.47
CAUGAGCAAUAUUACGGGAC | -2.99 ± 0.18 | -1.95 ± 0.24
CAUGAGCAAUAUUACGGGCG | -0.135 ± 0.075 | 0.178 ± 0.092
CAUGAGCAAUAUUACGGUAG | -2.01 ± 0.1 | -0.949 ± 0.11
CAUGAGCAAUAUUACGGUCC | -3.81 ± 0.37 | 
CAUGAGCAAUAUUACGGUGC | -3.35 ± 0.28 | -3 ± 0.26
CAUGAGCAAUAUUACGGUGU | -4.27 ± 0.28 | -2.54 ± 0.23
CAUGAGCAAUAUUACGGUUG | -1.97 ± 0.094 | -0.986 ± 0.12

Sequence | self-splicing fitness (ln) (30 °C) | self-splicing fitness (ln) (37 °C)
CAUGAGCAAUAUUACGUAGA | -4.22 ± 0.27 | -2.77 ± 0.21
CAUGAGCAAUAUUACGUAGC | -1.64 ± 0.17 | -1.96 ± 0.26
CAUGAGCAAUAUUACGUCAG | -1.35 ± 0.095 | -1.13 ± 0.12
CAUGAGCAAUAUUACGUGAC | -3.75 ± 0.25 | 
CAUGAGCAAUAUUACGUGCG | -1.75 ± 0.077 | -0.908 ± 0.083
CAUGAGCAAUAUUACGUUGA | -2.92 ± 0.18 | -3.4 ± 0.29
CAUUAGCAAUAUUACGAAUG | -2.67 ± 0.19 | -2.28 ± 0.3
CAUUAGCAAUAUUACGACAC | -2.3 ± 0.2 | -1.89 ± 0.23
CAUUAGCAAUAUUACGACAU | -3.364 ± 0.024 | -1.97 ± 0.036
CAUUAGCAAUAUUACGACUA | -1.75 ± 0.49 | 
CAUUAGCAAUAUUACGACUU | -1.99 ± 0.16 | -1.71 ± 0.18
CAUUAGCAAUAUUACGAGAG | -2.5 ± 0.19 | -2.63 ± 0.21
CAUUAGCAAUAUUACGAUAC | -3.07 ± 0.47 | -2.23 ± 0.43
CAUUAGCAAUAUUACGAUUU | -2.32 ± 0.13 | -1.56 ± 0.15
CAUUAGCAAUAUUACGCAGA |  | -1.78 ± 0.31
CAUUAGCAAUAUUACGCGGG | -1.95 ± 0.3 | 0.421 ± 0.2
CAUUAGCAAUAUUACGCUCC |  | -1.18 ± 0.38
CAUUAGCAAUAUUACGGCCA | -2.3 ± 0.28 | 
CAUUAGCAAUAUUACGGGAU | -3.2 ± 0.19 | -2.92 ± 0.23
CAUUAGCAAUAUUACGGGCA | -2.73 ± 0.27 | -1.1 ± 0.16
CAUUAGCAAUAUUACGGUGA | -2.79 ± 0.19 | -1.92 ± 0.13
CAUUAGCAAUAUUACGUCAG | -0.381 ± 0.091 | -0.0898 ± 0.098
CAUUAGCAAUAUUACGUGAA | -2.94 ± 0.21 | -3.18 ± 0.29
CAUUAGCAAUAUUACGUGGU | -4.46 ± 0.21 | -2.6 ± 0.16
CCAAAGCAAUAUUACGAACC | -3.78 ± 0.47 | -1.5 ± 0.34
